Assay results published in patent publication US20030027251.

Molecular target: bacteriophage λ cII protein (UniProt P03042)

Substance | fold induction of β-galactosidase (induced/uninduced), strain SYKD006; reference SYKD004 without plasmid ftsH: 21 [fold] | fold induction of β-galactosidase, strain SYKD006 | β-galactosidase level against arabinose used to induce FtsH(E415A), strain SYKD008 | fold induction of β-galactosidase (induced/uninduced), strain SYKD005; reference SYKD004 without plasmid ftsH: 21 [fold] | fold induction of β-galactosidase, strain SYKD005 | β-galactosidase level against arabinose used to induce FtsH, strain SYKD007
FtsH(E415A), protease-deficient mutant of FtsH | 26 | This reduction in the expression of lacZ was not observed in the presence of FtsH (E415A) | inducing the strain SYKD008 at different concentrations of arabinose did not have any effect on the levels of β-galactosidase being produced | – | – | –
E. coli FtsH | – | – | – | 10 | the fold induction of β-galactosidase was reduced to half when cII was induced with IPTG in the presence of FtsH | in SYKD007 the level of β-galactosidase appeared to be directly correlated to the amount of arabinose used for induction
